One assay addresses MK1966. Put plainly: SPR. A general note: SPR reads the build-up and loss of mass on a sensor chip optically.
The target in another assay is MK1966 (benchmark). Description: kinetic binding assay.
A further assay deals with hIL10R1. Put plainly: kinetic binding assay.
The target in the next assay is cynoIL10. Put plainly: kinetic binding assay.
The target of another assay is Cyno IL10. Put plainly: SPR.
In assay [1] the target is T1, IL-10 (Accession no. P22301) (UniProt P22301 19-178).
T1 chain: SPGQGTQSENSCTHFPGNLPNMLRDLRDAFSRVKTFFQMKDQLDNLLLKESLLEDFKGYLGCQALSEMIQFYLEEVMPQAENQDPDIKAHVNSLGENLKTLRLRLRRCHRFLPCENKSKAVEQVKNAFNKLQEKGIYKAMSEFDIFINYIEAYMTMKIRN
Put plainly: SPR.

Assay [2] deals with T1, IL-10 (Accession no. P22301). Put plainly: kinetic binding assay.

B1: Human IL10 (ligand)
chain: T1 chain
Broadly, the Kd is the free concentration of one partner at which half of the binding sites on the other are occupied at equilibrium, for simple one-to-one binding. The low end stands for a tighter complex, the high end for a looser complex. Molecule B1 had a Kd with MK1966 of 0.14 nM.

B2: hIL10 (ligand)
chain: T1 chain
As to B2, in the assay with MK1966 (benchmark), the equilibrium dissociation constant (Kd) is 0.0266 nM.

B3: αIL-10R candidate (antibody, V domains shown)
VH: QVQLQESGPGLVKPSETLSLTCTVSGGSISSDYWSWIRQPAGKRLEWIGRIFTSGSTNYNPSLKSRVTMSVDTSKNQFSLKLNSLTAADTAVYYCARDDWYFDLWGRGTLVTVSS
VL: EIVMTQSPATLSVSPGERATLSCRASQSVSNNLAWYQQKPGQAPRFLIYGASTRATGMPARFSGSGSGTEFTLTISSLQSEDFAVYFCQQYNEWPWTFGQGTKVEIK
B3 displayed a Kd with hIL10R1 of 0.117 nM.

B4: h49G08 (antibody, V domains shown)
VH: EVQLVESGGGLVQPGGSLRLSCAASGFTFSDYYMYWVRQAPGKGLEWVSTISDGGSYTYYPDSVKGRFTISRDNAKNNLYLQMNSLRAEDTAVYYCARGYYYGLFTYWGQGTLVTVSS
VL: DIQMTQSPSSLSASVGDRVTITCRASQDVNTGLNWYQQKPGQAPKLLIYWASSRQSGVPSRFSGSGSGTDFTLTISSLQPEDFATYYCQQHYSTPYTFGQGTKLEIK
Molecule B4 returned a Kd with cynoIL10 of less than 0.001 nM.

B5: hu49G08 (antibody, V domains shown)
VH: B4 VH
VL: B4 VL
B5 had a Kd with Cyno IL10 of 0.11 nM.

B6: 49G08_H1L2 (antibody, V domains shown)
VH: B4 VH
VL: B4 VL
Consider B6, for which the values for the Kd in assay [1] and in assay [2] were 0.16 nM and 0.0199 nM, respectively.

These data come from patent publication US20260234240A1 (published 2026).
